Data as given in paper PMC4059916, “VARP Is Recruited on to Endosomes by Direct Interaction with Retromer, Where Together They Function in Export to the Cell Surface” (Developmental Cell, 2014).

T1: SeMet-Rab32 1-225 (Q85L/V100M/Q153M/V158M/I192M) (UniProt Q13637 1-225, Q85L | V100M | Q153M | V158M | I192M, selenomethionine (SeMet protein))
T1 construct: Rab32 residues 1-225; also called SeMet-Rab32Q85L; source: E. coli B834, M9 media (seleno-methionine), purified
T1 sequence (looked up): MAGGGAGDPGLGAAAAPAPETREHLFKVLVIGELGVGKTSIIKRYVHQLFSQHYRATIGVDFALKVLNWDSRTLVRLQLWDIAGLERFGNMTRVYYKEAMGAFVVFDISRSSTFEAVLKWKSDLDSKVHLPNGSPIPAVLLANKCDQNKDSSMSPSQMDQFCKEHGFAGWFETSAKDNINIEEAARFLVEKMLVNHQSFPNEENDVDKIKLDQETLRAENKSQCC

B1: Rab32 1-225 (Q85L), GTP hydrolysis-defective mutant, GST removed (enzyme, UniProt Q13637 1-225, looked up)
chain: MAGGGAGDPGLGAAAAPAPETREHLFKVLVIGELGVGKTSIIKRYVHQLFSQHYRATIGVDFALKVLNWDSRTLVRLQLWDIAGLERFGNMTRVYYKEAVGAFVVFDISRSSTFEAVLKWKSDLDSKVHLPNGSPIPAVLLANKCDQNKDSSQSPSQVDQFCKEHGFAGWFETSAKDNINIEEAARFLVEKILVNHQSFPNEENDVDKIKLDQETLRAENKSQCC
notes: Rab32, residues 1-225; limits 1-225 are printed for the crystallised construct; also called Rab32(Q85L); Rab32Q85L

Legend:
Conditions in all cases: both partners purified
[1] = target: VPS29, recombinant, as used in ITC (UniProt Q9UBQ0 1-182); test: ITC; recombinant VARP Cys-rich motif fragments and VPS29; who was titrated is not told
[2] = target: T2, VARP fragment, residues 397-650 (human, UniProt Q96NW4 397-650); test: ITC; Nano ITC; VARP constructs at 60 μM in the cell at 4°C, Rab constructs at 300 μM titrated, 24 injections of 2 μl; 50 mM HEPES pH 7.4, 200 mM NaCl, 5 mM MgCl2, 1 mM TCEP
T2 construct: VARP (VPS9-domain ankyrin repeat protein; 1,050 residues), residues 397-650, contains ANKRD1; source: E. coli Rosetta 2 pLysS, purified (GSH-sepharose, PreScission cleavage, Superdex 75)
T2 sequence (Q96NW4 397-650): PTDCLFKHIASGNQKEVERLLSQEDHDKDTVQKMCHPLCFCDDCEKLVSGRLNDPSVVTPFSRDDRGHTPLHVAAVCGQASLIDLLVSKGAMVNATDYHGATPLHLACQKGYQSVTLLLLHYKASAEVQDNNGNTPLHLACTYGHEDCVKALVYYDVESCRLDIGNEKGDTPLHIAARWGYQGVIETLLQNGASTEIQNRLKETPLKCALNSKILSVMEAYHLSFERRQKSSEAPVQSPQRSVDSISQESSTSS

[3] = target: B1; test: as above
[4] = target: T1, SeMet-Rab32 1-225 …; test: crystal structure; sitting drop vapor diffusion at 18°C, PEG 3350, 200 mM sodium citrate pH 8.0; molecular replacement

Row | Binder | Kd [3] [µM] | also measured
1 | VARP fragment with the second Cys-rich motif, 4C2 (C711S/C715S/C717S/C720S), as used in ITC (domain or fragment, VARP; source: E. coli, purified) TEEDLEDAEDTVSAADPEFSHPLSQSPKSAPAQKRLAKVPASGLGVNVTSQDGSS | – | fold decrease in binding against the wild-type fragment [1]: ~20 fold
2 | B1 | – | Kd [2]: 7 µM
3 | VARP451-640His6 (first ankyrin repeat domain, ANKRD1), wild type (domain or fragment, human, UniProt Q96NW4 451-640, looked up, VARP (VPS9-domain ankyrin repeat protein); also called VARP ANKRD1; VARP-ANKR domain 1; source: E. coli Rosetta 2 pLysS, purified (GSH-sepharose, PreScission cleavage, Ni-NTA agarose, Superdex 75); not shown: His6, C-terminal, kept) PSVVTPFSRDDRGHTPLHVAAVCGQASLIDLLVSKGAMVNATDYHGATPLHLACQKGYQSVTLLLLHYKASAEVQDNNGNTPLHLACTYGHEDCVKALVYYDVESCRLDIGNEKGDTPLHIAARWGYQGVIETLLQNGASTEIQNRLKETPLKCALNSKILSVMEAYHLSFERRQKSSEAPVQSPQRSVD | 2.5 | binding result [4]: binds
4 | VARP451-640His6 Y550A (domain or fragment, human, UniProt Q96NW4 451-640, looked up, also called VARP(Y550A); source: E. coli Rosetta 2 pLysS, purified; not shown: His6, C-terminal, kept) PSVVTPFSRDDRGHTPLHVAAVCGQASLIDLLVSKGAMVNATDYHGATPLHLACQKGYQSVTLLLLHYKASAEVQDNNGNTPLHLACTYGHEDCVKALVAYDVESCRLDIGNEKGDTPLHIAARWGYQGVIETLLQNGASTEIQNRLKETPLKCALNSKILSVMEAYHLSFERRQKSSEAPVQSPQRSVD | ~22 | –
5 | VARP451-640His6 L513D (domain or fragment, human, UniProt Q96NW4 451-640, looked up, source: E. coli Rosetta 2 pLysS, purified; not shown: His6, C-terminal, kept) PSVVTPFSRDDRGHTPLHVAAVCGQASLIDLLVSKGAMVNATDYHGATPLHLACQKGYQSVTDLLLHYKASAEVQDNNGNTPLHLACTYGHEDCVKALVYYDVESCRLDIGNEKGDTPLHIAARWGYQGVIETLLQNGASTEIQNRLKETPLKCALNSKILSVMEAYHLSFERRQKSSEAPVQSPQRSVD | > 300 | –
6 | VARP451-640His6 K546D (domain or fragment, human, UniProt Q96NW4 451-640, looked up, also called VARP(K546D); source: E. coli Rosetta 2 pLysS, purified; not shown: His6, C-terminal, kept) PSVVTPFSRDDRGHTPLHVAAVCGQASLIDLLVSKGAMVNATDYHGATPLHLACQKGYQSVTLLLLHYKASAEVQDNNGNTPLHLACTYGHEDCVDALVYYDVESCRLDIGNEKGDTPLHIAARWGYQGVIETLLQNGASTEIQNRLKETPLKCALNSKILSVMEAYHLSFERRQKSSEAPVQSPQRSVD | ~8 | –
